Measurements as given in US20190338029A1 (Y BIOLOGICS, published 2019).

T1: hCD3εε chains
T1 epsilon: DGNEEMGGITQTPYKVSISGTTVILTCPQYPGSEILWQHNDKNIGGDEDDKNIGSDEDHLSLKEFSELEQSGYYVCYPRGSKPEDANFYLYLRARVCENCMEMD

T2: hCD3εγ chains
T2 construct: copies: 1 + 1
T2 epsilon: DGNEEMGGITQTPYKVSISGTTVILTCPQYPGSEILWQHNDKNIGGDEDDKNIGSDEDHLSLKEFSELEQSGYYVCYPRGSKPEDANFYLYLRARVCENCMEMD
T2 gamma: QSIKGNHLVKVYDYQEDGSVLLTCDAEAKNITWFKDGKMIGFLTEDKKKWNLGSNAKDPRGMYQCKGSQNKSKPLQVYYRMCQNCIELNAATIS


Experiments:
[1] = target: T1, hCD3εε chains; assay: ELISA on hCD3εε chains
Protocol: (§1) Next day, plate was washed once with 200 μl of PBST, and then a surface blocking was performed at room temperature with 5% skim milk for 1-2 hours. […] Each well was then washed three times with 200 μl of PB ST to remove unbound samples. Horseradish peroxidase (HRP)-conjugated anti-human IgG (Fab specific) antibodies (Sigma, USA) were added to wells at a ratio of 1:1000 for a reaction at room temperature. After three times of washing with 200 ul of PBST, a color reaction of HRP was induced using TMB solution (GEhealthcare, USA) in a volume of 10 μl/well. The reaction was terminated by using a stop solution (2.5 M H2504, 100 μl/well). A spectrophotometer was used to measure the absorbance at a wavelength of A450 to calculate the binding affinity.

[2] = target: T3, PD-L1 (PD-1/PD-L1 Blockade Bioassay kit, Promega) (UniProt Q9NZQ7 19-290, limits assumed); assay: cell-based or functional assay
[3] = target: T4, human PD-L1 (human, UniProt Q9NZQ7 19-238, limits assumed); assay: label-free kinetics on OCTET QKe, PD-L1 on AHC biosensor; PD-L1 fixed on AHC biosensor (OCTET QKe)
T4 construct: also called hPD-L1
Protocol: (§2) Measurement of label-free kinetics (protein-protein interaction) using OCTET® QKe system (ForteBio, USA) was performed by using an anti-human IgG capture (AHC) biosensor (ForteBio, USA) for human PD-L1 and amine reactive (ARG2) biosensor for CD3εδ chains. […] Sensorgrams were collected over time.

[4] = target: CD3 (Sino Biological); assay: ELISA on CD3, curve fit
Protocol: as §1

[5] = target: T2, hCD3εγ chains; assay: ELISA on hCD3εγ chains, curve fit of a flat curve
Protocol: as §1

[6] = target: T3, PD-L1 (PD-1/PD-L1 Blockade Bioassay …); assay: cell-based or functional assay; remark: listed apart in the source
[7] = target: T5, CD3 on Jurkat luciferase reporter cells (Homo sapiens (Human), UniProt P07766 23-207; P09693 23-182; P04234 22-171); assay: flow cytometry on Jurkat_NFAT_Luc2P cells, FITC-A; histogram shifted to about 10^3
T5 construct: also called CD3 positive Jurkat cell line with NFAT luciferase reporter

[8] = target: T2, hCD3εγ chains; assay: ELISA on hCD3εγ chains, curve fit
Protocol: as §1

[9] = target: T4, human PD-L1; assay: label-free kinetics on OCTET QKe (called SPR in the text), PD-L1 on AHC biosensor
Protocol: as §2

T3 sequence (Q9NZQ7 19-290 limits assumed): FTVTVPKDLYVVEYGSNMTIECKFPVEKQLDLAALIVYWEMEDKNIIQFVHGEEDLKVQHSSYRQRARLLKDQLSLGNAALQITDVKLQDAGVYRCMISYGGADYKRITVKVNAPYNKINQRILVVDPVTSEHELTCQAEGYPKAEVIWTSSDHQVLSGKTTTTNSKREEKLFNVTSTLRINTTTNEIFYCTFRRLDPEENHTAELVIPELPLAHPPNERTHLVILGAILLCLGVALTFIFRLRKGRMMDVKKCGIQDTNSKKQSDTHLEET
T4 sequence (Q9NZQ7 19-238 limits assumed): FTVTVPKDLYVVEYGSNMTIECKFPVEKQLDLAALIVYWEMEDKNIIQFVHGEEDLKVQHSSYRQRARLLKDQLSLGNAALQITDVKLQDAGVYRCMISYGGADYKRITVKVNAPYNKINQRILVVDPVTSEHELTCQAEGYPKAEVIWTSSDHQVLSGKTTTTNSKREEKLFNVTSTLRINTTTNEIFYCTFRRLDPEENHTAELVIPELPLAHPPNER

EC50; luciferase RLU in the PD-1/PD-L1 Blockade Bioassay, blocked partner PD-1 [2] [nM] | Bmax [4] [O.D. 450 nm] | Kd [4] [nM] | EC50 (read off the curve); luciferase RLU in the PD-1/PD-L1 Blockade Bioassay, blocked partner PD-1 [6] [mg/L] | Binder | other results
0.00429 | 3.97 | 17.6 | ~0.02 | ACE-05 (bispecific antibody, Contains a GGGGS linker between the hinge and the Fv; also called ALiCE molecule ACE-05) heavy 1: not shown heavy 2: not shown light: QLVLTQPPSVSGAPGQRVTISCTGSSSNIGAGYDVHWYQQLPGAAPKLLIYGDINRPSGVPDRFSGSKSGISASLAITGLQAEDEADYYCQSYDSSLSGGVFGGGTKLTVLRTVAAPSVFIFPPSDEQLKSGTASVVCLLNNFYPREAKVQWKVDNALQSGNSQESVTEQDSKDSTYSLSSTLTLSKADYEKHKVYACEVTHQGLSSPVTKSFNRGEC | binding result [1]: no binding (tested: 100 nM); Kd [3]: < 0.0109 nM; Kd (fit value of a flat curve) [5]: 0.035 nM
 | 4.04 | 21.1 |  | ACE-09 (bispecific antibody) heavy 1: not shown heavy 2: not shown light: QLVLTQPPSVSGAPGQRVTISCTGSSSNIGAGYDVHWYQQLPGAAPKLLIYGDINRPSGVPDRFSGSKSGISASLAITGLQAEDEADYYCQSYDSSLSGGVFGGGTKLTVLRSVAAPSVFIFPPSDEQLKSGTASVVCLLNNFYPREAKVQWKVDNALQSGNSQESVTEQDSKDSTYSLSSTLTLSKADYEKHKVYACEVTHQGLSSPVTKSFNRGEC | 
 |  |  | ~0.08 | ACE-05-VL2 (other) heavy: not shown light: QLVLTQPPSVSGAPGQRVTISCTGSSSNIGAGYDVHWYQQLPGAAPKLLIYGDINRPSGVPDRFSGSKSGISASLAITGLQAEDEADYYCQSYDSSLSGGVFGGGTKLTVLRTVAAPSVFIFPPSDEQLKSGTASVVCLLNNFYPREAKVQWKVDNALQSGNSQESVTEQDSKDSTYSLSSTLTLSKADYEKHKVYACEVTHQGLSSPVTKSFNRGEC | 
 | 3.67 | 2.69 |  | UCHT1 (an anti-CD3 antibody from BioLegend, USA) (antibody, V domains shown, Bought antibody; also called parental anti-CD3 antibody) VH: EVQLQQSGPELVKPGPSMKISCKASGYSFTGYTMNWVKQSHGKNLEWMGLINPYKGVSTYNQKFKDKATLTVDKSSSTAYMELLSLTSEDSAVYYCARSGYYGDSDWYFDVWGQGTTLTVFS VL: DIQMTQTTSSLSASLGDRVTISCRASQDIRNYLNWYQQKPDGTVKLLIYYTSRLHSGVPSKFSGSGSGTDYSLTISNLEQEDIATYFCQQGNTLPWTFAGGTKLEIKR | Fold [7]: 35 fold over hIgG; Kd [8]: 33.3 nM
0.0112 |  |  | ~0.05 | YBL-007 (antibody, V domains shown, also called parental anti-PD-L1 antibody; anti-hPD-L1 antibody) VH: QMQLVQSGAEVKKPGSSVKVSCKASGGTFSSYAISWVRQAPGQGLEWMGRIIPILGIANYAQKFQGRVTITADKSTSTAYMELSSLRSEDTAVYYCAKPRDGYNLVAFDIWGQGTMVTVSS VL: QLVLTQPPSVSGAPGQRVTISCTGSSSNIGAGYDVHWYQQLPGAAPKLLIYGDINRPSGVPDRFSGSKSGISASLAITGLQAEDEADYYCQSYDSSLSGGVFGGGTKLTVLR | Kd [9]: 0.0132 nM
